In paper PMC6067968:
Blank lines part the entries; values can stand above or below the substance they belong to.

Columns and labels:
Experiment in all cases: cross-linking
[1] = biological target: Recombinant full-length human apolipoprotein A-I L159R (Finnish variant) (human)
[2] = biological target: Recombinant full-length human apolipoprotein A-I L170P (human)
[3] = biological target: Recombinant full-length human apolipoprotein A-I F71Y (human)

stoichiometry N [1]: 2
Substance: Recombinant full-length human apolipoprotein A-I L159R (Finnish variant) (natural protein)

stoichiometry N [2]: 2
Substance: Recombinant full-length human apolipoprotein A-I L170P (natural protein)

stoichiometry N [3]: 2
Substance: Recombinant full-length human apolipoprotein A-I F71Y (natural protein)
